Test [1] addresses Myc-GST融合蛋白(Myc标签与谷胱甘肽融合的蛋白). The experiment in a line: indirect ELISA, Myc-GST coated at 5 μg/mL, HRP anti-His secondary antibody; heat test at 70℃ for 30 min. For orientation: In an ELISA, binding on a coated surface is turned into a signal by an enzyme label.
For test [2], the target named is Myc-GST融合蛋白(Myc标签与谷胱甘肽融合的蛋白). Put plainly: indirect ELISA, Myc-GST coated at 5 μg/mL, HRP anti-His secondary antibody; heat test at 80℃ for 30 min.
Test [3] has as its target Myc-GST融合蛋白(Myc标签与谷胱甘肽融合的蛋白). Put plainly: indirect ELISA, Myc-GST coated at 5 μg/mL, HRP anti-His secondary antibody; heat test at 90℃ for 30 min.

B1: 抗c-Myc标签单域重链抗体 (VHH, not shown: small tags and cut ends)
VHH: QLQLVESGGGLVQPGESLTLTCVASGGTLENWDIAWFRQAPGKEREGVAYFSSDGIRNYGDSMRGRFKISRDNAKNTAWLQMNRLSVEDTSTYYCAAKERVGRAWRNDGLYRYWGQGTQVTVSS
On to B1, for which the figures for the OD450 in test [1], in test [2] and in test [3] were 1.5 OD450, 1.4 OD450 and 1.2 OD450, respectively.

The values above are taken from CN106902750A.
